# Laboratory results: patent publication US20200199244A1
# Experiments:
# [1] = target: biotinylated human CD40 (human) (UniProt P25942); experiment: SPR, BIAcore 3000, 1 µM Fab alone over biotinylated human CD40
# [2] = target: biotinylated human CD40 (human) (UniProt P25942); experiment: SPR, BIAcore 3000, Fab injected alone over biotinylated human CD40 on SA chip
# [3] = target: biotinylated human CD40 (human) (UniProt P25942); experiment: SPR, BIAcore 3000 COINJECT over biotinylated human CD40; mixture after first injection; competitor BMS3h-56-5
# [4] = target: biotinylated human CD40 (human) (UniProt P25942); experiment: SPR, BIAcore 3000 COINJECT over biotinylated human CD40; mixture after first injection; competitor Chi220 Fab
# [5] = target: biotinylated human CD40 (human) (UniProt P25942); experiment: SPR, BIAcore 3000 COINJECT over biotinylated human CD40; mixture after first injection; competitor BMS3h-193-12
# [6] = target: biotinylated human CD40 (human) (UniProt P25942); experiment: SPR, BIAcore 3000 COINJECT over biotinylated human CD40; mixture after first injection; competitor G28-5 Fab
# Sequence of biotinylated human CD40 (human) (P25942 21-193 limits assumed): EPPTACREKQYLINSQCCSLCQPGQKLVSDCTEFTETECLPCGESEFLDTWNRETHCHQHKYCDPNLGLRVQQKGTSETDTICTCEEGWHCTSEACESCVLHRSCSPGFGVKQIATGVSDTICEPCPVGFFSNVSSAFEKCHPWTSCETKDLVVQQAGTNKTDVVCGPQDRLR
Single dAb RU [1],RU first dAb/Fab alone [2],Second Injection (% of single dAb/Fab RU) [3],Second Injection (% of single dAb/Fab RU) [4],Second Injection (% of single dAb/Fab RU) [5],Second Injection (% of single dAb/Fab RU) [6],Substance
730 RU,730 RU,94%,11%,93%,,G28-5 Fab'
,1090 RU,98%,,98%,39%,Chi220 Fab'
